Source: PMC8752837, “Structural basis of BAK activation in mitochondrial apoptosis initiation” (Nature Communications, 2022)
Where two headings read alike, the source gives them in different places.

Assays:
[1] = target: tevBAK (residues 22–186) (human) (UniProt Q16611); assay: ITC; 250 or 500 µM BID BH3 peptide injected into 20 or 50 µM tevBAK; 25 °C; 20 mM HEPES, 100 mM NaCl, 1 mM TCEP; single site binding model
[2] = target: T1, Human BAK-∆TM-His6 (human); assay: SPR; MEAS-BAK-His6 captured (~500 RU) on Ni2+-charged NTA HisCap chip, peptides injected; 20 °C; 20 mM HEPES pH 8.0, 200 mM NaCl, 1 mM TCEP, 0.01% Tween20; 1:1 interaction model
T1 sequence (Q16611 whole entry, looked up): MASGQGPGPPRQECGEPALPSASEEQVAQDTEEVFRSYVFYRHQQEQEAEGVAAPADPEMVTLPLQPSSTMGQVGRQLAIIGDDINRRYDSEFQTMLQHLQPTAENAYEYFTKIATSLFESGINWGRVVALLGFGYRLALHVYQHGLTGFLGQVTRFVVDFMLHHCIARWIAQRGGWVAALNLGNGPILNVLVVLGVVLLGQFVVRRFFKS

[3] = target: T2, MEAS-BAK-His6 (C-terminus truncated recombinant human BAK containing C-terminal 6x histidine tag) (human) (UniProt Q16611); assay: SPR; MEAS-BAK-His6 captured (~500 RU) on Ni-NTA HisCap chip, peptides injected; 20 °C; 20 mM HEPES pH 8.0, 200 mM NaCl, 1 mM TCEP, 0.01% Tween20; 1:1 interaction model
T2 sequence: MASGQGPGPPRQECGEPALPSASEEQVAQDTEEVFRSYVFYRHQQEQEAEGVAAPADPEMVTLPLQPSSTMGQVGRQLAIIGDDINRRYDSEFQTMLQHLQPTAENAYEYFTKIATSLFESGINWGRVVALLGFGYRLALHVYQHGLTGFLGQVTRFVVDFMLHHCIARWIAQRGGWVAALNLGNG

[4] = target: T2, MEAS-BAK-His6 (C-terminus truncated recombinant human BAK containing C-terminal 6x histidine tag) (human); assay: as above; remark: listed apart in the source
[5] = target: T2, MEAS-BAK-His6 (C-terminus truncated recombinant human BAK containing C-terminal 6x histidine tag) (human)
[6] = target: GST-BAK (human); assay: fluorescence polarisation; competitive: displacement of 10 nM BID BH3 SAHB-F from 1 µM GST-BAK by peptides at 500-0.2 µM; 50 mM Tris-HCl pH 7.5, 50 mM KCl, 0.1 mg/mL BSA, 2 mM DTT, 0.005% Tween-20; 60 min at RT

Substance | Kd [3] [µM] | koff [3] [s⁻¹] | kon [3] [M⁻¹ s⁻¹] | IC50 [6] [µM] | further results
M(3)W(5) BID-like BH3 peptide | – | – | – | – | fold higher affinity than WT BID BH3 [1]: 30 fold; fold higher affinity than WT BID BH3 [2]: 30 fold
W(3)W(5) BID BH3 peptide | 0.336 | 0.0241 | 71900 | – | kon [4]: 79100 M⁻¹ s⁻¹
WT BID BH3 peptide | 62.3 | 0.261 | 4190 | – | Supplementary Table 1: liposome permeabilization EC50 (peptide dose against AUC, 50 nM BAK; data of Supplementary Figure 7c) [5]: 0.059 µM
Y(3) BID BH3 peptide | – | – | – | 6.2 | –
Y(4) BID BH3 peptide | – | – | – | 6.9 | –
